Experimental data from patent US20240067748A1 (NONA BIOSCIENCES SUZHOU, published 2024).
Substitutions are numbered along the chain they refer to.

T1: human TROP2 protein (Sino Biological, #10428-H08H) (human, UniProt P09758 27-274)
T1 construct: bought protein; also called human Trop2 protein antigen (His tag); not shown: His tag
T1 sequence (looked up): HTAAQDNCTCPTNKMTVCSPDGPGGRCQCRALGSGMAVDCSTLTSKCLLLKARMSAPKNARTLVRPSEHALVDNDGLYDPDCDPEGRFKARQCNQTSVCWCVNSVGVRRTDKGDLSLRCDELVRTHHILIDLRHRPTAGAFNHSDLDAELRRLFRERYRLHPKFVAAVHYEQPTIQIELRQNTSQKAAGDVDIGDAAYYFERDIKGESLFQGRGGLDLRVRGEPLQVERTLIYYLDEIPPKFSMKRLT

T2: monkey Trop2 protein (Sino Biological, #90893-C08H) (monkey, UniProt A0A2K5UE71 27-274)
T2 construct: bought protein; also called monkey Trop2 protein antigen (His tag)
T2 sequence: T1 sequence (looked up) with M36V, K46E, S67N, I204V

T3: monkey Trop2 on CHO-K1 cells (monkey, UniProt A0A2K5UE71 27-323)
T3 construct: also called CHO-K1/monkey Trop2
T3 sequence: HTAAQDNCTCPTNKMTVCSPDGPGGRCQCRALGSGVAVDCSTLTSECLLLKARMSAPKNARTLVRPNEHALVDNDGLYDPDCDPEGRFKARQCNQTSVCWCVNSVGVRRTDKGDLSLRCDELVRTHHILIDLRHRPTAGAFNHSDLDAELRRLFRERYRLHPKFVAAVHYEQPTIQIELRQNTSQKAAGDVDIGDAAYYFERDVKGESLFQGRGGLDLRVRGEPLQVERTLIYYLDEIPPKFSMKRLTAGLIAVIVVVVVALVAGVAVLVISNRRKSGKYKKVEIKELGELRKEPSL

T4: human Trop2 on cells (human, UniProt P09758 27-323)
T4 construct: whole, on cells; also called hTrop2; 293T-human Trop2 cells
T4 sequence (looked up): T3 sequence with V36M, E46K, N67S, V204I, V266M, S272T

B1: PR001166 (antibody, human IgG1, kappa, V domains shown)
VH: QVQLQESGPGLVKPSETLSLTCAVSGYSISSGYFWAWIRQPPGKGLEWIGSIYHSGRTHYNPSLKSRVIISLDTSKNQFSLKLRSVTAADSAVYYCAREGYASGSYYWGQGTLVTVSS
VL: EIVMTQSPATLSVSPGERATLSCRSSQSVNNYLAWFQQKPGQAPRLLIYDSSTRATGIPARFSGSGSGTEFTLTISSLQSEDFAFYFCQQYENWPLTFGGGTKVEIKR
notes: fully human IgG1/kappa; also called antibody No. (27)
B2: comparative example 2 antibody Tab (hRS7) (antibody, human IgG1, kappa, V domains shown)
VH: QVQLQQSGSELKKPGASVKVSCKASGYTFTNYGMNWVKQAPGQGLKWMGWINTYTGEPTYTDDFKGRFAFSLDTSVSTAYLQISSLKADDTAVYFCARGGFGSSYWYFDVWGQGSLVTVSS
VL: DIQLTQSPSSLSASVGDRVSITCKASQDVSIAVAWYQQKPGKAPKLLIYSASYRYTGVPDRFSGSGSGTDFTLTISSLQPEDFAVYYCQQHYITPLTFGAGTKVEIKR
notes: prepared on the basis of sacituzumab govitecan (ChemPartner, #T07-001); naked antibody
B3: PR001165 (antibody, human IgG1, kappa, V domains shown)
VH: QVQLVESGGGVVQPGRSLRLSCEASGFTFSHYGMHWVRQAPGKGLEWVAVIWYDGIKTYYVESVKGRFTISRDNSKNTLNLQMNRLRAEDTAVYYCARDGGFGESNYYGLDVWGQGTTVTVSS
VL: DIQLTQSPSFLSASVGDRVTITCRASQGISSYLGWYQQKPGKAPKLLIYIASTLQSGVPSRFSGSGSGTEFTLTISSLQPEDFATYYCQQLNSYPYTFGQGTKLEIKR
notes: fully human IgG1/kappa; also called antibody No. (26)
B4: PR001142 (antibody, human IgG1, kappa, V domains shown)
VH: QVQLQESGPGLVKPSGTLSLTCAVSGDSISSNNWWSWVRQPPGKGLEWIGEIYPGGNPNYNPSLKSRVTISVDKSKNQFSLKLNSVTAADTAVYYCARGSGVISYFDYWGQGTLVTVSS
VL: DIQMTQSPSTLSASVGDRVTITCRASQSIGHWLAWYQQKPGKAPKLLIYKASSLESGVPSRFRGSGSGTEFTLTISSLQPDDFATYYCQQYSSYSPITFGQGSRLEIKR
notes: fully human IgG1/kappa; also called antibody No. (9)

Each binder was assayed against T1, human TROP2 protein (Sino Biological, …) (assay: SPR, Biacore T200, antigen immobilised on CM5 chip).
Protocol: (§1) HBS-EP+ (10 mM HEPES, 150 mM NaCl, 3 mM EDTA, and 0.05% P20, pH 7.4, GE Healthcare, BR-1001-88) was used as a running buffer throughout the test. […] Data were analyzed using Biacore T200 (GE Healthcare, T200 model, #BIAC-B20-03) Evaluation 3.1 software.

Row | Binder | Kd | koff | kon
1 | B1 | 0.0279 nM | 5.78e-05 s⁻¹ | 2.07e+06 M⁻¹ s⁻¹
2 | B2 | 0.601 nM |  | 
3 | B3 | 0.495 nM | 0.000152 s⁻¹ | 307000 M⁻¹ s⁻¹
4 | B4 | 0.53 nM | 0.000252 s⁻¹ | 475000 M⁻¹ s⁻¹

These binders were tested against T2, monkey Trop2 protein (Sino Biological, …) (assay: SPR, Biacore T200, antigen immobilised on CM5 chip).
Protocol: as §1

Row | Binder | Kd | koff | kon
5 | B1 | 0.0856 nM | 0.000137 s⁻¹ | 1.59e+06 M⁻¹ s⁻¹
6 | B2 | 0.619 nM |  | 
7 | B3 | 0.491 nM | 0.000125 s⁻¹ | 255000 M⁻¹ s⁻¹
8 | B4 | 0.374 nM | 0.000179 s⁻¹ | 479000 M⁻¹ s⁻¹

The binders below were run against T3, monkey Trop2 on CHO-K1 cells (assay: flow cytometry on CHO-K1/monkey Trop2 cells (second run)).
Protocol: CHO-K1/monkey Trop2 cells (Chempartner, Shanghai, China) and CHO-K1 blast cells were each digested with 3 mL of TrypLE, and the digestion was stopped with 7 mL of the corresponding medium. […] The cell solution was centrifuged, and the cells were washed once with PBS+0.5% BSA. […] The cells were washed once with PBS+0.5% BSA. The cells were incubated at 4° C. for 1 h in the dark with 100 μL of Alexa Fluor 488 goat anti-human IgG (Life technologies, #A-11013) diluted at 1:1000, and washed twice with PBS+0.5% BSA. The cells were resuspended in 200 μL of PBS+0.5% BSA. The suspension was centrifuged at 4° C. for 5 min at 2000 rpm and tested using a FACS verse flow cytometer or NovoCyte flow cytometer (ACEA Biosciences). All procedures were performed on ice.

Row | Binder | EC50
9 | B2 | 1.3 nM
10 | B3 | 1.8 nM

The binders below were run against T4, human Trop2 on cells (assay: flow cytometry on BxPC-3 tumor cells (second panel of the table)).
Protocol: BxPC-3 tumor cells (the Cell Bank of the Chinese Academy of Sciences, #TCHu 12) were digested with 3 mL of TrypLE, and the digestion was stopped with 7 mL of the corresponding medium. […] The cell solution was centrifuged, and the cells were washed once with PBS+[…] buffer. […] The cells were washed once with PBS+0.50% BSA. The cells were incubated at 4° C. for 1 h in the dark with 100 μL of Alexa Fluor 488 goat anti-human IgG (Life technologies, #A-11013) diluted at 1:1000, and washed twice with PBS+0.50% BSA. The cells were resuspended in 200 μL of PBS+0.50% BSA. The suspension was centrifuged at 4° C. for 5 min at 2000 rpm and tested using a FACS verse flow cytometer or NovoCyte flow cytometer (ACEA Biosciences). All procedures were performed on ice.

Row | Binder | EC50
11 | B2 | 2.67 nM
12 | B3 | 1.71 nM

Each binder was assayed against T1, human TROP2 protein (Sino Biological, …) (assay: BLI epitope binning (Octet), biotinylated human Trop2 on SA sensor; row = primary antibody; competitor (secondary antibody, column): hRS7).
Protocol: (§2) The biotinylated mixture after the incubation was washed three times with PBS and a Zeba centrifugal desalting column (Thermo Fisher, #89882) to remove excess biotin. The biotinylated Trop2 protein was captured by an SA sensor (Pall ForteBio, #18-5019) with the loading baseline set at 0.3 nm. The sensor was immersed in a well of assay buffer containing 50 nM primary antibody for 300 s. […] The binding assay was performed by comparing the binding of the secondary antibody to Trop2 in the presence of the primary antibody to the blocking of the primary antibody itself.

Row | Binder | Inhibition rate (%)
13 | B1 | 21.8%
14 | B2 | 96.5%
15 | B3 | 96.4%
16 | B4 | 97.8%

These binders were tested against T1, human TROP2 protein (Sino Biological, …) (assay: BLI epitope binning (Octet), biotinylated human Trop2 on SA sensor; row = primary antibody; competitor (secondary antibody, column): PR001166).
Protocol: as §2

Row | Binder | Inhibition rate (%)
17 | B1 | 102%
18 | B2 | 7.34%
19 | B3 | 5.24%
20 | B4 | 85.5%
